assay: soluble on expression in E. coli; label from the status in PepcDB or PDB records

Row | Sequence | soluble on expression in E. coli
1 | MGVCFSAIRVTGASSSRRSSQTKSKAAPTPIDTKASTKRRTGSIPCGKRTDFGYSKDFHDHYTIGKLLGHGQFGYTYVAIHRPNGDRVAVKRLDKSKMVLPIAVEDVKREVQILIALSGHENVVQFHNAFEDDDYVYIVMELCEGGELLDRILSKKGNRYSEKDAAVVVRQMLKVAGECHLHGLVHRDMKPENFLFKSAQLDSPLKATDFGLSDFIKPGKRFHDIVGSAYYVAPEVLKRRSGPESDVWSIGVITYILLCGRRPFWDRTEDGIFKEVLRNKPDFSRKPWATISDSAKDFVKKLLVKDPRARLTAAQALSHAWVREGGNATDIPVDISVLNNLRQFVRYSRLKQFALRALASTLDEAEISDLRDQFDAIDVDKNGVISLEEMRQALAKDLPWKLKDSRVAEILEAIDSNTDGLVDFTEFVAAALHVHQLEEHDSEKWQLRSRAAFEKFDLDKDGYITPEELRMHTGLRGSIDPLLDEADIDRDGKISLHEFRRLLRTASISSQRAPSPAGHRNLR | soluble
2 | MGVLTTFISQKALVGGYDNTIEPGVVILSGATITCNVSIGQGTFINKSTVISHDVRIGRYCEVSPGAKVLGRAIIGDRTEIGANAVILPDVIVGADCKIGAGAVVTRNIDSHTTVAGVPARSITKSSNNAFKLKSKIRNLLYHIRIADFRKLREYNHYVFGLEHHHHHH | not soluble
3 | MGYCVLHLEKAKGADSGMSAHIERTIVPKNIDPTRTHLNRELIMFPDGVCNRTLAIRHRLDTAGLKRKIGKNQVQAIRIVLSGTHEDMARMEDEGRLGEWCDDSVAWLRETYGAENLVSAVLHMDEETPHIHATVVPIVQGERRKQKKEENARRRYRTKAPAPRLCADEVMSRASLIRYQDTYAEHMEKYGLKRGVRGSLAKHLSTHEYYRSLITQGEDIQANIATLLSRETEASRIIAEAEQAKQELARIKAETKTVELKNSAARTATAALNGIGSLLGSNKMSRLESENRQLHGEVAELKESIEQMRTDMQKMRDSYTAEQLRVSEQHQREIGNFRRIIDKAKEWFPILAEFLRIERICRSVGLSERHTDELLQGKVLVVTGKLFSDEYKRSFTVEKVRLKVGREERDGKTVLDLLVDRVPIAAWFKEKWEKVSINRFRRNEMTIQKERGVRLLEHHHHHH | not soluble
4 | MGYRNTGSPPPPQIGGLYGDRNPNPYGTVNLGGGSPYPGGLEEYNIRPAAPFSGLVGGSRSGYYGSTVGMRRGAVVPPMSSRKTKIPQTEYPPDYASNDLMNSFNGATNSAIPSLRELATYASRYGPAYLRERFGSHDSQLERMLYGGSGPQIPSRGGGIPIDYNMNIASNHWNRGIGSPMGIMSRDVDSYQHDDAAKANKKTTTGSPSTTSTRKPRKARKPTKKTVAAAPSSSSNTSTTAKPAKTVKTSEKSA | not soluble
5 | MHAIILTMRVGIVGFGNMGQAFALCFSKKLGKENIIVTDKVQEKRNLATEMGIAFASDVKFLADNSDVVLVAVKPKDSQEVLQKLKDYKGIILSIMAGVSIEKMEKILGKDKKIVRVMPNVNVAVGSGVMAITDNGNLSEEERSKVEELLLSCGTLYRIEERLFDAFTALAGSGPAFVFSFIDALALAGVHQGFSYEQALRIALDTVMGSAKLLKEFQVNPNELIAKVTSPGGTTIEGIKYLEEKGFKGTVMECINRTSQKAKKLLEHHHHHH | not soluble
6 | MHHHHHHGKPIPNPLLGLDSTENLYFQGIDPFTDVAAPSPAAAAEPGPAARPRSTRGQVRLPGGEFAMGDAFGEGYPADGETPVHTVRLRPFHIDETAVTNARFAAFVKATGHVTDAERFGSSAVFHLVVAAPDADVLGSAAGAPWWINVRGAHWRRPEGARSDITGRPNHPVVHVSWNDATAYARWAGKRLPTEAEWEYAARGGLAGRRYAWGDELTPGGRWRCNIWQGRFPHVNTAEDGHLSTAPVKSYRPNGHGLWNTAGNVWEWCSDWFSPTYYAESPTVDPHGPGTGAARVLRGGSYLCHDSYCNRYRVAARSSNTPDSSSGNLGFRCANDADLTSGSAAE | soluble
7 | MHHHHHHSSGMNWTVDIPIDQLPSLPPLPTDLRTRLDAALAKPAAQQPTWPADQALAMRTVLESVPPVTVPSEIVRLQEQLAQVAKGEAFLLQGGDCAETFMDNTEPHIRGNVRALLQMAVVLTYGASMPVVKVARIAGQYAKPRSADIDALGLRSYRGDMINGFAPDAAAREHDPSRLVRAYANASAAMNLVRALTSSGLASLHLVHDWNREFVRTSPAGARYEALATEIDRGLRFMSACGVADRNLQTAEIYASHEALVLDYERAMLRLSDGDDGEPQLFDLSAHTVWIGERTRQIDGAHIAFAQVIANPVGVKLGPNMTPELAVEYVERLDPHNKPGRLTLVSRMGNHKVRDLLPPIVEKVQATGHQVIWQCDPMHGNTHESSTGFKTRHFDRIVDEVQGFFEVHRALGTHPGGIHVEITGENVTECLGGAQDISETDLAGRYETACDPRLNTQQSLELAFLVAEMLRD | soluble
8 | MHHHHHHSSGRENLYFQGDLQATPGMFITSKKGHLSEMYQRVKKLGSGAYGEVLLCRDKVTHVERAIKIIRKTSVSTSSNSKLLEEVAVLKLLDHPNIMKLYDFFEDKRNYYLVMECYKGGELFDEIIHRMKFNEVDAAVIIKQVLSGVTYLHKHNIVHRDLKPENLLLESKEKDALIKIVDFGLSAVFENQKKMKERLGTAYYIAPEVLRKKYDEKCDVWSIGVILFILLAGYPPFGGQTDQEILRKVEKGKYTFDSPEWKNVSEGAKDLIKQMLQFDSQRRISAQQALEHPWIKEMCSKKESGIELPSLANAIENMRKFQNSQKLAQAALLYMASKLTSQEETKELTDIFRHIDKNGDGQLDRQELIDGYSKLSGEEVAVFDLPQIESEVDAILGAADFDRNGYIDYSEFVTVAMDRKSLLSKDKLESAFQKFDQDGNGKISVDELASVFGLDHLESKTWKEMISGIDSNNDGDVDFEEFCKMIQKLCSNNE | soluble
9 | MHHHHHHSSGRENLYFQGESTRRLILVGRTGAGKSATGNSILGQRRFFSRLGATSVTRACTTGSRRWDKCHVEVVDTPDIFSSQVSKTDPGCEERGHCYLLSAPGPHALLLVTQLGRFTAQDQQAVRQVRDMFGEDVLKWMVIVFTRKEDLAGGSLHDYVSNTENRALRELVAECGGRVCAFDNRATGREQEAQVEQLLGMVEGLVLEHKGAHYSNEVYELAQVLRWAGPEERLRRVAERVAARVQR | soluble
10 | MHHHHHHSSGRENLYFQGTYNISVVGLSGTEKEKGQCGIGKSCLCNRFVRPSADEFHLDHTSVLSTSDFGGRVVNNDHFLYWGEVSRSLEDCVECKMHIVEQTEFIDDQTFQPHRSTALQPYIKRAAATKLASAEKLMYFCTDQLGLEQDFEQKQMPDGKLLVDGFLLGIDVSRGMNRNFDDQLKFVSNLYNQLAKTKKPIVVVLTKCDEGVERYIRDAHTFALSKKNLQVVETSARSNVNVDLAFSTLVQLIDK | soluble
11 | MHHHHHHSSGVDLGTENLYFQSMHGWGYGQDDGPSHWHKLYPIAQGDRQSPINIISSQAVYSPSLQPLELSYEACMSLSITNNGHSVQVDFNDSDDRTVVTGGPLEGPYRLKQFHFHWGKKHDVGSEHTVDGKSFPSELHLVHWNAKKYSTFGEAASAPDGLAVVGVFLETGDEHPSMNRLTDALYMVRFKGTKAQFSCFNPKCLLPASRHYWTYPGSLTTPPLSESVTWIVLREPICISERQMGKFRSLLFTSEDDERIHMVNNFRPPQPLKGRVVKASF | soluble
12 | MHHHHHHSSGVDLGTENLYFQSMNLPEHWTDMNHQLFCMVQLEPGQSEYNTIKDKFTRTCSSYAIEKIERIQNAFLWQSYQVKKRQMDIKNDHKNNERLLFHGTDADSVPYVNQHGFNRSCAGKNAVSYGKGTYFAVDASYSAKDTYSKPDSNGRKHMYVVRVLTGVFTKGRAGLVTPPPKNPHNPTDLFDSVTNNTRSPKLFVVFFDNQAYPEYLITFTA | soluble
13 | MHHISLTPFGRQPVTAGILASQRLAEARSPLPEIDKWALFADLRTARARFGVSDRDLAVLYALLSFLPGRVLTDAAPLVVFPSNATLSDRAHGMAESTLRRHLAALVEAGLVARRDSANGKRYAHRNRAGELVTAYGFDLRPLLVRAAEIAETAAALEAEAEAMARARTALVLKLRDATKLAAYADPEGRAAGIEPRLMPIRRALRRRLTLADLAEMARTLDLVLGDIRRTLALRAAEMDGTVGRIERHHTESKTESSDLEGGHACGKTSGEAEKDCRNIGGESPDEKANRPSPNRAEPDEARPEELASLEINDNQRPAPTLPLGLVLKACPDLEPYAPEIRNWRDLTAAASRLRGMMGITPSAWEEAKAEMGAETASVALAAILQRFASIRNPGGYLRALTRRASEGAFSPTPMIMALLAETREA | not soluble
14 | MHIDNEDALFDWLSDELSPITDADPNALAKYVLALVKKPDKGHDELKAFTNEQLNVFLTDHTAPFVDKVFEALTSKSYMPASTAPTSASATAPDLKKEKAPAEKPSKPTAPPGVQKSSSSPSASKAESRPLRKRISPPPSENREKEKQSRDKERRRSRSPRDRRGRATTSRSGRTSSSDRDRHSKRRSRSRSRSSSGSRTPPYKSRSSRRRCKDFEERGYCIRGDQCPYYHGRDPVVVDENALGSMVPLPATAPNFSLPPPGYNPLNPPPPGVVVAAGEYNPEAPALNNYSIPPPPIPGQWQQPHVAAQYVPQSVSSYSQPPPAAAQGVVTQPGSFRGAPRGRGNIRGRGGFARGGFTGAINRDNCTLQVAKIPPEMNTIAKLNEHFATFGTVDNIQVRYNGEIDSALVTYASKFDAGKAYKSPTPVLNNRFIKVFWHNPGGEGSENATGKPSSPTSPPKPVEKPKIATVQESKFVSVAAQNYRKQIQDAKERLTKEKSILSTLVQAQNQHNIILDKWMVKQKELLIKARTSTDETDKKNATKLVKHLHKKIKACKEEVDGILLKISEKSMVVDEIAAQIEELKNPQKSDDSTRKRKAGSDGDEPQSKMSSVVIVRGVTDELVTDLMAHMEKFGEVFDHSVKADDDGLITAVFPFRKTGDALKAMADGKVLNGVDLEMELKTERIEEIPSTDTNMSADQLLAAIPSNLESDEEDDLLND | not soluble
15 | MHIISLLLENEPGALSRVVGLFSQRNYNIESLTVAPTEDPTLSRLTLTTVGHDEVIEQITKNLNKLIEVVKLVDL | soluble
16 | MHILDIWHRRNSRSYIAHLRSLGIRIGDGCIFRDPLTTRIDVSRPALVSIGSNVDMNTYFQILTHDWASFVFRNKYHDFVNSSGRVEIGSNIYIGTNVIVLRGVTIGDNCVIGAGSVVTHDIPANSVAVGAPCRVVCSLEHHHHHH | not soluble
17 | MHKNGKFIPLLALGFTFFLSGCDYFADKHLVEEMKEQQKEQETKINLLEKQQKEQEAKINLLEKQQATIINTTKKVTEVVGRVERKQRLFDYTELDPSQTHYFIINNGNIGLAGRILSIEPIDNGSVIHLDLVNLLSIPVSNLAFNMTWGTKKPSEAKDLPRWKQLLLNTKMDSTIELLPGAWTNVTLTLKGVSPNNLKYLKIGIDMENVIFDSIQPINDTKKKPKK | not soluble
18 | MHLHFTPRQIVEKLDQYIIGQKDAKKAVAVALRNRYRRSKLAENLRDEIAPKNILMIGPTGVGKTEVARRMAKLVGAPFIKVEATKFTEVGYVGRDVESMVRDLVETSVRIVKEEMVVKVQDKAEEQANQRLVEILVPSPEKQSGFKNPLEMLFGGTQNSNQTTDSQEDVEIEKKRQDVERKLAAGLLEDEIVSIEVTEQQSSMFDMLQGTGMEQMGMNFQDALGSFMPKKTKKRKLSVKEARKVLTNEEAQRLIDMDEVTQEAVYRAEQLGIIFIDEIDKIAGKQSNSVDVSREGVQRDILPIVEGSNVATKYGSVKTDYILFVAAGAFHMSKPSDLIPELQGRFPIRVELTKLSTDDFVKILIEPDNALIKQYMALLATEGIEIEFSDEAIRKIAEIAYQVNQDTDNIGARRLHTIMEKLLEDLSFEASEITLEKITITPQYVEEKLATIAKNKDVSQFIL | not soluble

Source: the DeepSol protein solubility set
